Substrate in data set [1]: C=C(O[C@@H]1C=C(C(=O)O)C=C[C@H]1O)C(=O)O
Put plainly: purified protein. Type of data set: biochemical, Petunia x hybrida. To be noted: 20 mM Tris-HCl pH 8.0, 1 mM EDTA, 37 °C.

Substrate in data set [2]: O=C(O)C(=O)CC1(C(=O)O)C=CC(O)C=C1
Description: purified protein. Type of data set: biochemical, Petunia x hybrida. To be noted: 20 mM Tris-HCl pH 8.0, 1 mM EDTA, 37 °C.

B1: PhCM1 (Petunia x hybrida) (protein)
chain: QASATSLGLGNKNRVDETESYTLDGIRHSLIRQEDSIIFSLVERAQYCYNAETYDPDVFAMDGFHGSLVEYIVRETEKLHATVGRYKSPDEHPFFPKVLPEPVLPPMQYPKVLHPIADSININVKIWEMYFENLLPRLVKEGDDGNYGSTAVCDTICVQALSKRIHYGKFVAEAKYRASPEVYNAAIRAQDRNGLMDLLTYPAVEEAIKRRVEIKTRTYGQELHINGPENGGDPVYKIKPSLVAELYGDWIMPLTKEVQVQYLLRRLD
For orientation: Km means the concentration of substrate that gives half-maximal velocity. As usually defined, the Vmax is the rate approached at saturating substrate. As for B1, in data set [1], the Michaelis constant (Km) amounted to 174 ± 27 µM and the Vmax worked out at 45.7 µmol/min/mg.

B2: PhADT3S (Petunia x hybrida) (protein)
chain: MHGAQLRVAYQGVPGAYSEAAAGKAYPKCEAIPCDQFEVAFQAVELWIADRAVLPIENSLGGSIHRNYDLLLRHRLHIVGEVQLPVHHCLLALPGVRKEYLTRVISHPQALAQCELTLTKLGLNVAREAVDDTAGAAEYIAANNLRDTAAIASSRAAELYGLDILEQGIQDDLSNVTRFVMLAREPIIPRTDRPFKTSIVFAHDKGTSVLFKVLSAFAFRNISLTKIESRPHRNRPIRLVDDANVGTAKHFEYMFYVDFEASMADVRAQNALAEVQEFTSFLRVLGSYPMDMTPWSPSRDA
notes: short isoform starting at second in-frame ATG (133 residues downstream of first Met), intact catalytic and ACT domains, about 33 kD, N-terminal 6xHis tag (pET-28a), E. coli, Ni-NTA
In the case of B2, in data set [2], the Km turned out to be 433 ± 73 µM and the Vmax stood at 0.113 µmol/min/mg.

B3: PhCM2 (Petunia x hybrida) (protein)
chain: MACGDYDDKLSLDLIRDSLIRQEDTIIFNLIERIKFPINSTLYKKPSSWFPDFTGSLFQYLFQETEALQSKVGRYLSPEENPFFPDNLPASIVPPSKCPPVLHPVAESININEKILDVYLNQLLPLFCTEADEGNYATTAACDIQLLQAISRRIHYGKFVAEVKFRDCSDEYTPLILAQQDRDALMKLLTFEVVEEMVKKRVAKKAMIFGQEVTLVDNAKEVKCKVDPLLVSRLYDEWIMPLTKHVQVEYLLRRLDQNKLTSI
notes: coding region, N-terminal 6xHis tag (pET-28a), E. coli, Ni-NTA
For the protein B3, in data set [1] (reaction volume 225 μl), the Km came out at 8.6 ± 1.2 µM and the Vmax was found to be 114 µmol/min/mg.

B4: PhADT3L (Petunia x hybrida) (protein)
chain: AGAAAVNTGVVNTPASNNTAGHVGASRTDWQSSCAILASKVVSQQQDTEKSGGAGNITAVNGHKILNLDLLPVESNRAKPLTITDLSPAPMHGAQLRVAYQGVPGAYSEAAAGKAYPKCEAIPCDQFEVAFQAVELWIADRAVLPIENSLGGSIHRNYDLLLRHRLHIVGEVQLPVHHCLLALPGVRKEYLTRVISHPQALAQCELTLTKLGLNVAREAVDDTAGAAEYIAANNLRDTAAIASSRAAELYGLDILEQGIQDDLSNVTRFVMLAREPIIPRTDRPFKTSIVFAHDKGTSVLFKVLSAFAFRNISLTKIESRPHRNRPIRLVDDANVGTAKHFEYMFYVDFEASMADVRAQNALAEVQEFTSFLRVLGSYPMDMTPWSPSRDA
For B4, in data set [2], the Km is 358 ± 32 µM and the Vmax was found to be 0.125 µmol/min/mg.
